Experimental data: patent US20180312565A1

Target: PD-L1 on PD-L1 expressing cells (IFNg-stimulated THP-1 cells; MDA-MB-231 cells) (UniProt Q9NZQ7)
Test: FACS, MDA-MB-231 cells, 1 µg/ml, other secondary antibody

PD-L1 on PD-L1 expressing cells (IFNg-stimulated THP-1 cells; MDA-MB-231 cells), sequence (Q9NZQ7 19-290 limits assumed): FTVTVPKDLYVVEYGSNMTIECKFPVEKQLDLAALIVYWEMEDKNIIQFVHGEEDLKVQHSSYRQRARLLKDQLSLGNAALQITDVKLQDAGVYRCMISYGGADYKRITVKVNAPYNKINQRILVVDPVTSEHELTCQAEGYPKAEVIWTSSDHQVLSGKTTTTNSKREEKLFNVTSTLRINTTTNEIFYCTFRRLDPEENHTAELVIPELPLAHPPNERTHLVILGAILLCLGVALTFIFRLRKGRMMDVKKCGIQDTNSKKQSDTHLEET

- MFI: 610
Substance: mouse anti-PD-L1 antibody (R&D Systems, cat. no. MAB1561)
